Assay results published in article PMC3988563 (2014).

Molecular target: Ribosome termination complex (70S ribosomes, fMet-STOP mRNA and fMet-tRNA^fMet) (E. coli)
Assay: with RF3:GDP

- koff: 0.08 s⁻¹
B1: Fluorescein-labeled GAQ-RF1 (single-cysteine L82C or A220C) (natural protein)
chain: MKPSIVAKLEALHERHEEVQALLGDAQTIADQERFRALSREYAQLSDVSRSFTDWQQVQEDIETAQMMLDDPEMREMAQDELREAKEKSEQLEQQLQVLLLPKDPDDERNAFLEVRAGTGGDEAALFAGDLFRMYSRYAEARRWRVEIMSASEGEHGGYKEIIAKISGDGVYGRLKFESGGHRVQRVPATESQGRIHTSASTVAVMPELPDAELPDINPCDLRIDTFRSSGAGAQHVNTTDSAIRITHLPTGIVVESQDERSQHKNKAKALSVLGARIHAAEMAKRQQAEASTRRNLLGSGDRSDRNRTYNFPQGRVTDHRINLTLYRLDEVMEGKLDMLIEPIIQEHQADQLAALSEQE
modifications: fluorescein (fluorescein-maleimide) on the introduced cysteine
